Holding throughout (format): cell-based
One assay deals with T1, hGIPr (C3) (Homo sapiens, UniProt P48546).
T1 construct: expressed in transfected cells
T1 sequence (P48546 22-466): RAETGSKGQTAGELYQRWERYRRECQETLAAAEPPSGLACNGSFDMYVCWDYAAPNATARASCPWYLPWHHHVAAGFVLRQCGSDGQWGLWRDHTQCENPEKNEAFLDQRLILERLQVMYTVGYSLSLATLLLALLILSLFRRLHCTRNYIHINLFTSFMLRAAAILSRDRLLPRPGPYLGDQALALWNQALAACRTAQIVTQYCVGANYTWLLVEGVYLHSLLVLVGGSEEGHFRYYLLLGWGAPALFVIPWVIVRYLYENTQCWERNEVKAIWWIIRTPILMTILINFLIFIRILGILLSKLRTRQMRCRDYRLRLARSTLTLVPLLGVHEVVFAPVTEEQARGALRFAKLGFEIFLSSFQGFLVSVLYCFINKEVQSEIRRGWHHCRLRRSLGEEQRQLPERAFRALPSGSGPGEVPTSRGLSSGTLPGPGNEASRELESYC
Kind of assay: BSA-cAMP assay, second human GIPr cell line hGIPr (C3). The settings on record: Batch 1, second hGIPr cell line, read-out: hGIPr (C3) cAMP activity EC50. As for the experimental part: For human GIPr, two different lines were used, shown as “hGIPr” and “hGIPr (C3)” in Table 11. Peptide activation of these various receptors results in downstream production of cAMP second messenger that can be measured in a functional activity assay.
One basic cAMP assays was performed, differing in the medium used for the assay, the “BSA-cAMP assay”:
BSA-based assay medium: 0.1% bovine serum albumin (BSA) in
Hanks Balanced Salt Solution (GIBCO or Sigma), containing 0.5 mM IBMX (Sigma #17018);
In certain aspects, the assay can also be carried out in medium supplemented with serum albumin that corresponds to the receptor being tested, e.g., human serum albumin for testing cAMP activity at hGIPr or hGLP-1r, rat serum albumin for testing cAMP activity at rGIPr or rGLP-1r, and so on. […]
cAMP levels were measured using a commercially available cAMP dynamic 2 HTRF kit (Cisbio, Cat #62AM4PEJ), following the two step protocol as per manufacturer's recommendations. […] Plates were incubated at room temperature for one hour and then read on an Envision (Perkin Elmer) using excitation wavelength of 320 nm and emission wavelengths of 620 nm & 665 nm. Data was transformed to % Delta F as described in manufacturer's guidelines and then transformed to percent activation of maximal native agonist response and analysed by 4-parameter logistic fit to determine EC50 values. […]
On the technique in general: Changes in cAMP serve as a functional read-out for many G protein-coupled receptors.

The target of assay [1] is T2, rat GLP-1 receptor (rGLP-1r) (Rattus norvegicus, UniProt P32301).
T2 construct: expressed in transfected cells; host or cells: HEK293s or CHO cells
T2 sequence (P32301 22-463): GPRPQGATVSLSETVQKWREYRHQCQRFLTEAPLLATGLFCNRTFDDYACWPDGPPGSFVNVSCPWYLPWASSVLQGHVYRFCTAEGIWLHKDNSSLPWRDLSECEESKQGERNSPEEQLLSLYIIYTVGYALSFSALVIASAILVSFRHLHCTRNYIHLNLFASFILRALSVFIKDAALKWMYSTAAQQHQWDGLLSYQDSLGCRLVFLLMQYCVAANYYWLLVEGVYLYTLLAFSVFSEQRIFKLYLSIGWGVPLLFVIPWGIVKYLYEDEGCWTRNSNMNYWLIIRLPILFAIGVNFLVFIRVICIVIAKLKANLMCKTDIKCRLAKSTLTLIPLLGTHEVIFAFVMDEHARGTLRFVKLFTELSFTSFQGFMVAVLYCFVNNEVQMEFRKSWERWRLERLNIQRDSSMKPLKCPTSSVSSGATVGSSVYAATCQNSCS
Kind of assay: BSA-cAMP assay, cells expressing rat GLP-1 receptor. To be noted: BSA-cAMP assay, read-out: rGLP1r cAMP activity EC50. The gist of the method: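 EC50 is the midpoint of an unconstrained 4-parameter logistic fit to HTRF cAMP data, expressed as percent of maximal native agonist response, from two separate occasions. Rodent (mouse, rat) GLP-1R- or GIPR-expressing cells were incubated with compound 30 min at room temperature in 0.1% BSA medium, in duplicate.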

For assay [2], the target named is T3, human GIP receptor (hGIPr) (Homo sapiens, UniProt P48546).
T3 construct: expressed in transfected cells
T3 sequence (P48546 22-466): T1 sequence (P48546 22-466)
Kind of assay: BSA-cAMP assay, cells expressing human GIP receptor. To be noted: BSA-cAMP assay, read-out: hGIPr cAMP activity EC50. The gist of the method:
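EC50 came from an unconstrained 4-parameter logistic fit of HTRF cAMP data expressed as percent of maximal native agonist activation, tested on two occasions. Thawed receptor-expressing cells (hGLP-1r, hGIPr at 0.5×10^5 cells/ml) treated 30 min at room temperature in 0.1% BSA-containing medium; two distinct hGIPr lines.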

Experimental findings from patent US20160185837A1 (Medimmune Limited, priority 2013, published 2016) are described below.

Where two headings read alike, the source gives them in different places.

For orientation: EC50 means the concentration needed to bring the measured effect to its halfway point. For the substance “IP412: Fc fusion, IgG1-TM, SEQ ID NO:387; agonist peptide YSEGTFTSDYSKLLEEEANRLFIEWLLAGG (YSEGTFTSDYSKLLEEEANRLFIEWLLAGGGGGGSGGGGSGGGGSGGGGSATHTCPPC)”, the EC50 in the assay with hGIPr (C3) was 1.3 nM.

Consider “IP396 (YSEGTFTSDYSKLLERQAIDEFIAWLLKGGGGGGGSGGGGSGGGGSGGGGSACPPC)”, for which the EC50 came to 0.057 nM in assay [1] (Batch 1), 0.01 nM in assay [1] (Batch 2) and 0.0093 nM in assay [2] (Batch 1).

With “IP320 (YSEGTFTSDYAAAAEAAAAAAFAAWLAAAAGGGGGSGGGGSGGGGSGGGGSACPPC)”, the EC50 worked out at 130 nM in assay [1] (Batch 1), 9.6 nM in assay [2] (Batch 1) and 44 nM in assay [2] (Batch 2).
